The source of these data is article PMC5760697, “Loss of the Mitochondrial Fatty Acid β-Oxidation Protein Medium-Chain Acyl-Coenzyme A Dehydrogenase Disrupts Oxidative Phosphorylation Protein Complex Stability and Function” (Scientific Reports, 2018).

The target in data set [1] is OXPHOS complex III dimer (human (endogenous in fibroblasts, 143B and HepG2)) (UniProt P00156). Put plainly: native gel or EMSA; BN-PAGE and Western blot of isolated mitochondria (fibroblasts, 143B cells) solubilised in 1% (v/v) Triton X-100; anti-UQCRC1 antibody. (Mobility shift assays separate free from complexed probe on a gel.)
Data set [2] shares this target. Put plainly: native gel or EMSA; mtDNA-encoded proteins radiolabeled with [35S]-methionine/cysteine in 143B cells in the presence of cycloheximide, 2 h pulse, chase 0, 3 or 24 h; mitochondria isolated, BN-PAGE or 2D native-PAGE.
Data set [3] concerns the molecule itself. Put plainly: native gel or EMSA; BN-PAGE and Western blot of isolated mitochondria (fibroblasts, 143B cells) solubilised in 1% (w/v) digitonin; anti-MCAD or anti-NDUFA9 antibody.
Data set [4] deals with the molecule itself. Put plainly: native gel or EMSA; 35S-labelled in vitro translated protein incubated at 37 °C with freshly isolated 143B mitochondria (5 to 60 min), mitochondria solubilised in 1% (v/v) TX-100 or 1% (w/v) digitonin, BN-PAGE.

On to “OXPHOS complex III dimer (from UniProt P00156 1-380; P31930 35-480; P22695 15-453)”, for which the stoichiometry N in data set [1] and in data set [2] was 2 in each case.

B1: Medium-chain acyl-Coenzyme A dehydrogenase (enzyme, human (endogenous in 143B and HepG2), UniProt P11310 26-421, looked up)
chain: KANRQREPGLGFSFEFTEQQKEFQATARKFAREEIIPVAAEYDKTGEYPVPLIRRAWELGLMNTHIPENCGGLGLGTFDACLISEELAYGCTGVQTAIEGNSLGQMPIIIAGNDQQKKKYLGRMTEEPLMCAYCVTEPGAGSDVAGIKTKAEKKGDEYIINGQKMWITNGGKANWYFLLARSDPDPKAPANKAFTGFIVEADTPGIQIGRKELNMGQRCSDTRGIVFEDVKVPKENVLIGDGAGFKVAMGAFDKTRPVVAAGAVGLAQRALDEATKYALERKTFGKLLVEHQAISFMLAEMAMKVELARMSYQRAAWEVDSGRRNTYYASIAKAFAGDIANQLATDAVQILGGNGFNTEYPVEKLMRDAKIYQIYEGTSQIQRLIVAREHIDKYKN
notes: Medium-chain acyl-CoA dehydrogenase (MCAD, EC 1.3.8.7); 421 amino acid precursor, processed in the mitochondrial matrix into a mature 396 amino acid (43.6 kDa) protein; also called MCAD; Medium-chain acyl-CoA dehydrogenase; source: endogenous, mitochondria isolated from 143B cells or HepG2 cells, solubilised in detergent
As to B1, the stoichiometry N (usually the number of molecules, sites or subunits per partner or assembly) in data set [3] came out at 4.

B2: Medium-chain acyl-Coenzyme A dehydrogenase (enzyme, UniProt P11310 26-421, looked up)
chain: KANRQREPGLGFSFEFTEQQKEFQATARKFAREEIIPVAAEYDKTGEYPVPLIRRAWELGLMNTHIPENCGGLGLGTFDACLISEELAYGCTGVQTAIEGNSLGQMPIIIAGNDQQKKKYLGRMTEEPLMCAYCVTEPGAGSDVAGIKTKAEKKGDEYIINGQKMWITNGGKANWYFLLARSDPDPKAPANKAFTGFIVEADTPGIQIGRKELNMGQRCSDTRGIVFEDVKVPKENVLIGDGAGFKVAMGAFDKTRPVVAAGAVGLAQRALDEATKYALERKTFGKLLVEHQAISFMLAEMAMKVELARMSYQRAAWEVDSGRRNTYYASIAKAFAGDIANQLATDAVQILGGNGFNTEYPVEKLMRDAKIYQIYEGTSQIQRLIVAREHIDKYKN
modifications: [35S]-methionine/cysteine
notes: MCAD cDNA translated as the precursor; after import a proteinase K resistant mature form is seen; 421 amino acid precursor, mature 396 amino acids; Imported into mitochondria that hold endogenous MCAD, so the labelled ~175 kDa tetramer may be mixed with endogenous chains; also called MCAD; radiolabeled MCAD; source: in vitro translated (pGEM4Z, TnT Coupled Reticulocyte Lysate System), imported …
B2: the “stoichiometry N” value in data set [4] worked out at 4.
